Tests used:
[1] = molecular target: T1, ATP-binding cassette transporter A1 (ABCA1) (UniProt P41233 1-2261, limits assumed); experiment: cell-based or functional assay
[2] = molecular target: T1, ATP-binding cassette transporter A1 …; experiment: cell-based or functional assay; remark: listed apart in the source

T1 sequence (P41233 whole entry): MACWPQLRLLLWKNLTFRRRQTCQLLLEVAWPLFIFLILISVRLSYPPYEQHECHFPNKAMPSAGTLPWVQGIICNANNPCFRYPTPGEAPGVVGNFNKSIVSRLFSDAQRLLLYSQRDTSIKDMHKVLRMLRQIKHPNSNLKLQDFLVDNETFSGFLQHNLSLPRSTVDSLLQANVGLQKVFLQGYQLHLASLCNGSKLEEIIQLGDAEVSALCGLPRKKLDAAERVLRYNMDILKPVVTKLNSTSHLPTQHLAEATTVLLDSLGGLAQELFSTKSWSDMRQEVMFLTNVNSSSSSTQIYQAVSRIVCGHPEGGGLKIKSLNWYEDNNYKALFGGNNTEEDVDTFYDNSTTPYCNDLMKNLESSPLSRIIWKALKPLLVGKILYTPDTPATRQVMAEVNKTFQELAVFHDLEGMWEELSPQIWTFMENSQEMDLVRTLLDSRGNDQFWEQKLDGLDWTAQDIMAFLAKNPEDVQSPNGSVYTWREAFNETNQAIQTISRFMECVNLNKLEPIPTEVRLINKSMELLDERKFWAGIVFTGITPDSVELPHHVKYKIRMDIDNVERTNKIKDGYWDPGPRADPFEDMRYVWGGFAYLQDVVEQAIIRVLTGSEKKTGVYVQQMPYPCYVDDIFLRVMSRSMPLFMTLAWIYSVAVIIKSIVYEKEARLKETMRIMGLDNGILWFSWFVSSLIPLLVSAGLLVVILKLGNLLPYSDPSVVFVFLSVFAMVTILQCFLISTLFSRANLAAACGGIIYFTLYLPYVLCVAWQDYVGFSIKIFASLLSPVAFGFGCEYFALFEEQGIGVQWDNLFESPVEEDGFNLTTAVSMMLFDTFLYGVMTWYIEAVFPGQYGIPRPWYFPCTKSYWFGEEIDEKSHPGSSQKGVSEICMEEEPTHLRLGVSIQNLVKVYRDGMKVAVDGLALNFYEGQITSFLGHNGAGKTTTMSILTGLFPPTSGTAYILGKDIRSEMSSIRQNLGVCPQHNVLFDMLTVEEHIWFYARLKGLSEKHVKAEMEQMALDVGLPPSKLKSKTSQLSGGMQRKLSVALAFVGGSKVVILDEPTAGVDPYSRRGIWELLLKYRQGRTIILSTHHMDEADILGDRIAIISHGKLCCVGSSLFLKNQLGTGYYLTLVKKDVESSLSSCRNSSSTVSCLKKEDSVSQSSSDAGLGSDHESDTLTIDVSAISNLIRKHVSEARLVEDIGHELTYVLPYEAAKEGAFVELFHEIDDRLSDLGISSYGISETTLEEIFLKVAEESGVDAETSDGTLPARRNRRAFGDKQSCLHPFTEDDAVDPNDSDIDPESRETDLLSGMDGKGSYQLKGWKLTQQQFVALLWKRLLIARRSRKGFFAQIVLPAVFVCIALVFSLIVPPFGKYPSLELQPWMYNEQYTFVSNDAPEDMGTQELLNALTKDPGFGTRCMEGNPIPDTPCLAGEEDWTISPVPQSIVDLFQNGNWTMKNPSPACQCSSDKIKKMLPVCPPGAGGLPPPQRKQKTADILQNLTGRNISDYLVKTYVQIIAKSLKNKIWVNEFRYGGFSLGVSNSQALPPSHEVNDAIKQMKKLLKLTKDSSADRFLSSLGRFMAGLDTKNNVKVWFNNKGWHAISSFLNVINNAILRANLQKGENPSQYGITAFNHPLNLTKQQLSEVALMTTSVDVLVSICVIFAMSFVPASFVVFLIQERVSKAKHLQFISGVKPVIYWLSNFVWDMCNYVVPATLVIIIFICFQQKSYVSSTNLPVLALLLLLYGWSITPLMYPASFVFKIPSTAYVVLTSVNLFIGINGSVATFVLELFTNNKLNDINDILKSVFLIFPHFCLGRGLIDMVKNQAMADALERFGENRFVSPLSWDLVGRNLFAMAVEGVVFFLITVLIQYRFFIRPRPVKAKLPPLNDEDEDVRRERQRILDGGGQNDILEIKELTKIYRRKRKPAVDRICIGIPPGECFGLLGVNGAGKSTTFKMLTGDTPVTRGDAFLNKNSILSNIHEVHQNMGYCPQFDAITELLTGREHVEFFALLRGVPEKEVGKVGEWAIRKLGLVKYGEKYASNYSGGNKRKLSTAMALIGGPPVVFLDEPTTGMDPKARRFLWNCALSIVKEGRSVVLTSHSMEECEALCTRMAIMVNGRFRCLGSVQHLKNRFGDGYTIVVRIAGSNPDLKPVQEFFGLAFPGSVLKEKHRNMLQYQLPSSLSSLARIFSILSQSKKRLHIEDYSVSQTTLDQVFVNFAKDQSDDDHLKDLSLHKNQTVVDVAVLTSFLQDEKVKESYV

Row | Binder | % cholesterol efflux/4 hours at 0.1 µg/ml [1] [%] | % cholesterol efflux/4 hours at 0.3 µg/ml [1] [%] | % cholesterol efflux/4 hours at 1.0 µg/ml [1] [%] | % cholesterol efflux/4 hours at 3.0 µg/ml [1] [%] | % cholesterol efflux/4 hours at 10 µg/ml [1] [%] | % cholesterol efflux/4 hours at 30 µg/ml [1] [%] | % cholesterol efflux/8 hours, +cAMP [2] [%] | % cholesterol efflux/8 hours, -cAMP [2] [%]
1 | EVREKLEAWFELFREFAERFKS [N965-2] | 0 | 0.13 | 0.01 | 2.23 | 5.96 | 3.98 | 6.97 | 1.28
2 | EVREKLEAWFELFREFLERFKS [N965-4] | 0.29 | 0.67 | 2.7 | 4.72 | 4 | 2.94 | 4.76 | 1.52
3 | EVREKLEAWFELFREFAERFLS [N965-3] | 0.23 | 0.47 | 1.06 | 3.48 | 3.05 | 2.53 | 3.85 | 1.45
4 | EVREKLEAWFELFREFLERFLS [N965-5] | 0.12 | 0.9 | 2.13 | 4.89 | 4.06 | 3.82 | 5.52 | 2.91
5 | EVREKLEAWFEAFREFAERFKS [N965-1] | 0 | 0.13 | 0 | 0.44 | 2.9 | 6.01 | 9.9 | 1.75

Other lines, results leading:

Row | % cholesterol efflux/4 hours at 0.1 µg/ml [1] [%] | % cholesterol efflux/4 hours at 0.3 µg/ml [1] [%] | % cholesterol efflux/4 hours at 1.0 µg/ml [1] [%] | % cholesterol efflux/4 hours at 3.0 µg/ml [1] [%] | % cholesterol efflux/4 hours at 10 µg/ml [1] [%] | % cholesterol efflux/4 hours at 30 µg/ml [1] [%] | % cholesterol efflux/8 hours, +cAMP [2] [%] | % cholesterol efflux/8 hours, -cAMP [2] [%] | Binder
6 | 0.03 | 0.3 | 1.39 | 4.94 | 3.65 | 2.66 | 4.03 | 1.5 | EVREKLEAWFELFREFLERF [N965-7]
7 | 0.03 | 0.41 | 0.72 | 2.45 | 1.77 | 1.41 | 2.94 | 1.06 | ELREKLEAWRELFEEFFARFLS [N965-9]
8 | 0.11 | 0.49 | 1.59 | 1.98 | 2.22 | 2.75 | 6.18 | 3.15 | EVREKLEAWFELFREFLERFL [N965-6]

From patent US20110190196A1 (University of California, published 2011)
